Key:
His‐Mis18β (human) = His‐Mis18β (human) (UniProt O43482); assay: SEC-MALS; 100 μl of about 1 mg/ml on Superdex 200 10/300 GL; 50 mM HEPES pH 8.0, 150 mM NaCl, 1 mM TCEP; 22°C; subunit numbers from measured against calculated MW
His‐GFP‐Mis18β (human) = His‐GFP‐Mis18β (human) (UniProt O43482); assay: as above
His‐GFP‐Mis18β (human), sequence (O43482 whole entry): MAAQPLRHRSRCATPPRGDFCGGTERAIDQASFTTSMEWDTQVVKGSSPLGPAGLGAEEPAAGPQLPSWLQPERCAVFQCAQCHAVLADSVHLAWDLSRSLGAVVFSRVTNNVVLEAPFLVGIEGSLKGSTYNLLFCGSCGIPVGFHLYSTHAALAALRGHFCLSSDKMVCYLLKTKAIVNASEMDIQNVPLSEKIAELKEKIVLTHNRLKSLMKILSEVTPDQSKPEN

His‐Mis18β (human), sequence (O43482 whole entry): as above
His‐GFP‐Mis18α, sequence (Q9NYP9 whole entry): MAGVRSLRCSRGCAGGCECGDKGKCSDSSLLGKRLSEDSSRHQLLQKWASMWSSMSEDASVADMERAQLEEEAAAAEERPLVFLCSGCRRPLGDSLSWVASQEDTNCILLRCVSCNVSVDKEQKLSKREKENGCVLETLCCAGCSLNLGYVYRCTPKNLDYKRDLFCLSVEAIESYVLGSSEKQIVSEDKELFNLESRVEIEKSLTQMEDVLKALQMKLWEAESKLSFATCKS
His‐Mis18α, sequence (Q9NYP9 whole entry): as above

| stoichiometry N (His-GFP-Mis18α per His-Mis18β (4:2)) (His‐Mis18β (human)) | stoichiometry N (His-Mis18α per His-GFP-Mis18β (4:2)) (His‐GFP‐Mis18β (human)) | Substance |
| --- | --- | --- |
| 2 | – | His‐GFP‐Mis18α (from UniProt Q9NYP9 1-233) (natural protein) |
| – | 2 | His‐Mis18α (from UniProt Q9NYP9 1-233) (natural protein) |
